Results reported in patent US20240270826A1 (NATIONAL RESEARCH COUNCIL OF CANADA, published 2024).

B1: NRCoV2-SR01 VHH-Fc (Fc fusion)
chain: EVQLVQSGGGSVQAGGSLRLSCVASGFTFDNYAIGWFRQAPGKEREGVSCISGNGGVTIYADSVKGRFTISRDNAKNLVYLQMNSLKPEDTAVYYCAATGIRSTWSVYGCSRLAGPYDYWGQGTQVTVSS
notes: bivalent VHH-Fc
B2: NRCoV2-20 VHH-Fc (Fc fusion)
chain: EVQLQQSGGGLVQPGGSLRLSCAASGRTFSNYVVGWFRQAPQAPGKDHEFVAVISGSDTETYYADSVKGRFTISRDNAKNTVYLQMNSLKPEDTAVYYCAADRGMSYYYTRATEYYYWGQGTQVTVSS
notes: bivalent VHH-Fc
B3: NRCoV2-18 VHH-Fc (Fc fusion)
chain: EVQLVESGGGLVQAGGSLRLSCVASGITISGYNMAWWRQTRGKQTERVAFINSGGSTTYSDSVKGRFTISRDNGKNTAYLQMNSLNAEDTADYFCSLHTSHDYWGQGTQVTVSS
notes: bivalent VHH-Fc
B4: NRCoV2-15 VHH-Fc (Fc fusion)
chain: EVQLVSSGGGLVEAGGSLRLSCIASGSTSGRNTMGWFRQAPGKQREWVAIVSTSGATNYAGSVKGRFTLSRDNAKNAVYLQMNNLKPEDTAVYYCYAAYGGGGDYWGQGTQVTVSS
notes: bivalent VHH-Fc
B5: NRCoV2-1d VHH-Fc (Fc fusion)
chain: EVQLVESGGGSVQPGGSLRLSCAASGSTLDYYAIGWFRQAPGKEREWVSSVSSSDGNTLYADSVKGRFTISRDNAKNTVYLQMNSLKAEDTAVYVCAADYSMRPFAVGRWHRDYEYWGQGTQVTVSS
notes: bivalent VHH-Fc
B6: NRCoV2-MRed05 VHH-Fc (Fc fusion)
chain: EVQLVESGGGLVQPGGSLRLSCAASGFTLDYYAIGWFRQAPGKEREGVSCISSSDGSTLYADSVKGRFTISRDNAKNTVYLQMNSLKPEDTAVYYCATGPQAYYSGSYYFQCPQAGMDYWGKGTQVTVSS
notes: bivalent VHH-Fc
B7: NRCoV2-05 VHH-Fc (Fc fusion)
chain: EVKLVQSGGGLVQPGGSLRLSCAASGFIFSNYAMNWVRQAPGKGLEWVSGINSGGGDTRYADSVKGRFTVSRDNAKNTLYLQMNSLKPEDTGVYYCSKGPVSSYYGSGYDYRGQGTQVTVSS
notes: bivalent VHH-Fc
B8: NRCoV2-04 VHH-Fc (Fc fusion)
chain: AVQLVDSGGGLVQPGGSLRLSCAASGSPFSNVVMAWYRQAPGKQRERVAFISGGGIADYIMSVKGRFTISRDNAKNTVYLQMNSLKPEDTAVYYCWSSYESTWGQGTQVTVSS
notes: bivalent VHH-Fc
B9: NRCoV2-14 VHH-Fc (Fc fusion)
chain: EVQLVSSGGGLVQAGGSLRLSCEASGTTFSHYAVGWYRQAPGKQREWVASISVFGSTTYGGSVAGRFTISRDNDKNTVDLQMNSLKPEDTAVYYCHAVNADIGGDYWGQGTQVTVSS
notes: bivalent VHH-Fc
B10: NRCoV2-17 VHH-Fc (Fc fusion)
chain: EVQLQQSGGGLVQTGGSLRLSCAAAGSPFSQLAMSWYRQISGKERAWVASISPTGNRSYSKIAKGRFTISRDNAKNTVTLQMTSLKPEDTAAYICQAANVNGGDYWGQGTQVTVSS
notes: bivalent VHH-Fc
B11: NRCoV2-12 VHH-Fc (Fc fusion)
chain: EVQLQQSGGGLVQAGGSLRLSCAASGRTFRNYVMGWFRQAPQAPGKDHEFVAAISWGGTEIYYADSVKGRFTISRDNAKNTVYLQMNSLKPEDTAVYYCAADRGLSYYYTRTTEYNYWGQGTQVTVSS
notes: bivalent VHH-Fc
B12: NRCoV2-MRed04 VHH-Fc (Fc fusion)
chain: EVQLVESGGGLVQPGRSLRLSCAASGNSFSISTMGWFRQAPGKERELVASIWSDTTTSYADSVKGRFTISTDNTRTKVYLQMSSLNPEDTAVYYCAADRGFVVRGQYDYWGQGTQVTVSS
notes: bivalent VHH-Fc
B13: NRCoV2-SR13 VHH-Fc (Fc fusion)
chain: EVQLVESGGGLVTTGGSLRLSCATSGSRFGSKHMAWYRQAPGKQRDLVAAISSGGSTHYGSSVKGRFTISRDNAKSTVYLQMNSLNPEDTAVFYCNMGGWDYRSNTYIPGSRSDYWGQGTQVTVSS
notes: bivalent VHH-Fc
B14: NRCoV2-07 VHH-Fc (Fc fusion)
chain: QVQLVQSGGGLVQPGGSLRLSCAASGVTLDYYAIGWFRQAPGKEREAVSCISSNGRRNHYVASVRGRFTISRDNAKSTVYLQMNSLKPEDTAVYYCAAVQDVHGDNYYCTSPNEYNVWGQGTQVTVSS
notes: bivalent VHH-Fc
B15: NRCoV2-11 VHH-Fc (Fc fusion)
chain: EVQLVSSGGGLVQPGGSLRLSCAASGSSLDSYSVSWFRQAPGKEREWISFISRYYSSTYYTDSVKGRFTTSRDGDQKTVHLQMNSLKPEDTAVYYCAARSRDFSSPFSATDTYTSWGQGTQVTVSS
notes: bivalent VHH-Fc
B16: NRCoV2-10 VHH-Fc (Fc fusion)
chain: QLQLQESGGGLVQPGGSLTLSCAASGNTFSRSNMHWYRQAPGAQREWVAAISSRGISTYAYSAKGRFTISRDNAKNTVSLQMNSLKPEDTAVYYCYAADDLGDYWGQGTQVTVSS
notes: bivalent VHH-Fc
B17: NRCoV2-02 VHH-Fc (Fc fusion)
chain: EVQLVESGGGLVQAGGSLRLSCAASGFTFSNYAMNWVRQAPGKGLEWVSGISGRGDDTRYADSVKGRFTISRDNAKNTLFLQMRSLRPEDTGVYRCTKGPDLYYFGSGYSDRGQGTQVTVSS
notes: bivalent VHH-Fc
B18: NRCoV2-SR02 VHH-Fc (Fc fusion)
chain: EVQLVDSGGGLVQAGGSLRLSCTASEFTLNYYSIGWFRQSPGKEREGVSCIRYSGGGIDYADSVKGRFTISRDNAKNTVYLTMNSLKPEDTAVYYCAADRLYSRACPTAGGRNYWGQGTQVTVSS
notes: bivalent VHH-Fc
B19: NRCoV2-SR01 VHH-Fc (Fc fusion)
chain: B1 chain
notes: bivalent VHH-Fc
B20: NRCoV2-20 VHH-Fc (Fc fusion)
chain: B2 chain
notes: bivalent VHH-Fc
B21: NRCoV2-12 VHH-Fc (Fc fusion)
chain: B11 chain
notes: bivalent VHH-Fc
B22: NRCoV2-15 VHH-Fc (Fc fusion)
chain: B4 chain
notes: bivalent VHH-Fc
B23: NRCoV2-04 VHH-Fc (Fc fusion)
chain: B8 chain
notes: bivalent VHH-Fc
B24: NRCoV2-14 VHH-Fc (Fc fusion)
chain: B9 chain
notes: bivalent VHH-Fc
B25: NRCoV2-17 VHH-Fc (Fc fusion)
chain: B10 chain
notes: bivalent VHH-Fc
B26: NRCoV2-11 VHH-Fc (Fc fusion)
chain: B15 chain
notes: bivalent VHH-Fc
B27: NRCoV2-10 VHH-Fc (Fc fusion)
chain: B16 chain
notes: bivalent VHH-Fc

The binders below were run against SARS-CoV-2 spike protein S on live virus, Alpha variant (SARS-CoV-2 (Alpha variant), UniProt P0DTC2 14-1273) (assay: cell-based or functional assay).

Row | Binder | LVNA IC50 [nM]
1 | B1 | 3.77
2 | B2 | 1.94
3 | B3 | 2.82
4 | B4 | 0.16
5 | B5 | 0.37
6 | B6 | 0.13
7 | B7 | 0.03
8 | B8 | 2.3
9 | B9 | 0.88
10 | B10 | 0.61
11 | B11 | 1.35
12 | B12 | 4.5
13 | B13 | ~100
14 | B14 | 0.42
15 | B15 | 2.3
16 | B16 | 0.47
17 | B17 | 0.09
18 | B18 | 9.05

The binders below were run against Human SARS-CoV-2 Omicron (B.1.1.529) S (SARS-CoV-2 (Omicron variant)) (assay: flow cytometry SVNA: VHH-Fc inhibits S binding to ACE2 on Vero E6 cells).

Row | Binder | IC50 [nM]
19 | B19 | 4.4
20 | B20 | 13.1
21 | B21 | 17.2
22 | B22 | 3
23 | B23 | 18.4
24 | B24 | 5.2
25 | B25 | 3.4
26 | B26 | 8.8
27 | B27 | 4.3
